Results taken from patent US20070244048A1 (published 2007).
Non-standard residues stand in square brackets, D forms with d. No end group written: not given here. *: point of attachment. Succinimide(1-Et,3-yl) = CCN1C(=O)CC(*)C1=O; Palmitoyl = CCCCCCCCCCCCCCCC(=O)*; hArg = N=C(N)NCCCC[C@H](N)C(=O)O

T1: human NMUR1 (human, UniProt Q9HB89 1-426)
T1 sequence (looked up): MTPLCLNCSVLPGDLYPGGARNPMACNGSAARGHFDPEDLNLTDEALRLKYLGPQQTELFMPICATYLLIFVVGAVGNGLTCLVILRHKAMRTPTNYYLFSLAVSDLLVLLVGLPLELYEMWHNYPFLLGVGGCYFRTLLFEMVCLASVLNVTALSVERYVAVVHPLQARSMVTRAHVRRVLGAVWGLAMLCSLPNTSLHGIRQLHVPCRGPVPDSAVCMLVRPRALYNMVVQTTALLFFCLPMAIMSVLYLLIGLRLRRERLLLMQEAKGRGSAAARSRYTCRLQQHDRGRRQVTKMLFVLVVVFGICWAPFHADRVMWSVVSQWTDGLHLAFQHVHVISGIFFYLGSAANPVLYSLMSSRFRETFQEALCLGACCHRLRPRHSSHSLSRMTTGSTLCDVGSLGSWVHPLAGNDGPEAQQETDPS

T2: mouse NMUR1-ATG (mouse, UniProt O55040 1-428)
T2 sequence (looked up): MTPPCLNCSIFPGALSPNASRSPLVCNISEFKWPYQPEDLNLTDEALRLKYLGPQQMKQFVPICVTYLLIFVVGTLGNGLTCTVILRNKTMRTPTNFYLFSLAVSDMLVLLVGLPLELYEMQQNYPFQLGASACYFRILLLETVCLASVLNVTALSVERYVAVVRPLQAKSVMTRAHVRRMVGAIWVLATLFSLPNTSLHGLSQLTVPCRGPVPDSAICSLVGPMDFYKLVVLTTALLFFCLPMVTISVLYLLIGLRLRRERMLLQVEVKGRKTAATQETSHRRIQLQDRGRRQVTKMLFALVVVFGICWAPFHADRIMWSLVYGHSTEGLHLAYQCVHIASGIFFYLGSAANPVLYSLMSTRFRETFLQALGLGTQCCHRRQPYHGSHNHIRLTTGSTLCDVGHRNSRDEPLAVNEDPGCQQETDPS

T3: mouse NMUR1-CTG (mouse, UniProt O55040 1-428)
T3 sequence (looked up): T2 sequence (looked up)

T4: rat NMUR1-ATG (rat, UniProt Q9JJI5 1-425)
T4 sequence (looked up): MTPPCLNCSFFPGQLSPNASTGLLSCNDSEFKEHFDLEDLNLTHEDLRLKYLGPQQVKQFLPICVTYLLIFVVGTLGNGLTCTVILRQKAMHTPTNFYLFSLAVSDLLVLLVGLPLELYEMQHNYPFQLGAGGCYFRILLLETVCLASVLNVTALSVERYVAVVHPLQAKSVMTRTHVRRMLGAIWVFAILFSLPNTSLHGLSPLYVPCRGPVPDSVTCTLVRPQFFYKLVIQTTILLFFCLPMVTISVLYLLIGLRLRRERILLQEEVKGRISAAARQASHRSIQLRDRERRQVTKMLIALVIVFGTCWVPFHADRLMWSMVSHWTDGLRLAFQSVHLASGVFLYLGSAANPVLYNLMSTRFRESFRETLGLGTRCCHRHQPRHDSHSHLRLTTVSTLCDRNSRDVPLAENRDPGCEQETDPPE

T5: rat NMUR1-TTG (rat, UniProt Q9JJI5 1-425)
T5 sequence (looked up): T4 sequence (looked up)

B1: neuromedin U receptor agonist P (peptide)
peptide: FRVDEEFQSPFASQSRGFWLFRA[hArg]N-NH2
modifications: N-terminus assumed
SMILES: CC(C)C[C@H](NC(=O)[C@H](Cc1c[nH]c2ccccc12)NC(=O)[C@H](Cc1ccccc1)NC(=O)CNC(=O)[C@H](CCCNC(=N)N)NC(=O)[C@H](CO)NC(=O)[C@H](CCC(N)=O)NC(=O)[C@H](CO)NC(=O)[C@H](C)NC(=O)[C@H](Cc1ccccc1)NC(=O)[C@@H]1CCCN1C(=O)[C@H](CO)NC(=O)[C@H](CCC(N)=O)NC(=O)[C@H](Cc1ccccc1)NC(=O)[C@H](CCC(=O)O)NC(=O)[C@H](CCC(=O)O)NC(=O)[C@H](CC(=O)O)NC(=O)[C@@H](NC(=O)[C@H](CCCNC(=N)N)NC(=O)[C@@H](N)Cc1ccccc1)C(C)C)C(=O)N[C@@H](Cc1ccccc1)C(=O)N[C@@H](CCCNC(=N)N)C(=O)N[C@@H](C)C(=O)N[C@@H](CCCCNC(=N)N)C(=O)N[C@@H](CC(N)=O)C(N)=O
B2: neuromedin U receptor agonist I (peptide)
peptide: FWLFRP[hArg]N-NH2
modifications: N-terminus assumed
SMILES: CC(C)C[C@H](NC(=O)[C@H](Cc1c[nH]c2ccccc12)NC(=O)[C@@H](N)Cc1ccccc1)C(=O)N[C@@H](Cc1ccccc1)C(=O)N[C@@H](CCCNC(=N)N)C(=O)N1CCC[C@H]1C(=O)N[C@@H](CCCCNC(=N)N)C(=O)N[C@@H](CC(N)=O)C(N)=O
B3: neuromedin U receptor agonist J (peptide)
peptide: FWLFRA[hArg]N-NH2
modifications: N-terminus assumed
SMILES: CC(C)C[C@H](NC(=O)[C@H](Cc1c[nH]c2ccccc12)NC(=O)[C@@H](N)Cc1ccccc1)C(=O)N[C@@H](Cc1ccccc1)C(=O)N[C@@H](CCCNC(=N)N)C(=O)N[C@@H](C)C(=O)N[C@@H](CCCCNC(=N)N)C(=O)N[C@@H](CC(N)=O)C(N)=O

What was measured:
human NMUR1 [1] = target: T1, human NMUR1; assay: cell-based or functional assay
human NMUR2 [2] = target: T6, human NMUR2 (human, UniProt Q9GZQ4 1-415); assay: cell-based or functional assay
T6 sequence (Q9GZQ4 whole entry): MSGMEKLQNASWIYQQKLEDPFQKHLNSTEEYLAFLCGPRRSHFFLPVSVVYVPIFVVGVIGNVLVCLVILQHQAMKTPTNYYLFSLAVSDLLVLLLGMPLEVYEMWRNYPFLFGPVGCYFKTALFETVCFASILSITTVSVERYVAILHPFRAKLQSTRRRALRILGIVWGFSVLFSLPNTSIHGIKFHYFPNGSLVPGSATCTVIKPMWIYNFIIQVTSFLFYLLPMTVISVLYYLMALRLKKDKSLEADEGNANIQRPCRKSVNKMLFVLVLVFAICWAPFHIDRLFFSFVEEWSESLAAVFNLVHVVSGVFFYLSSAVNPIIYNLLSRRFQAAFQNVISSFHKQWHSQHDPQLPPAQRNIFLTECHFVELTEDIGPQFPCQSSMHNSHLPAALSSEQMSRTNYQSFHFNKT

human NMUR1 [3] = target: T1, human NMUR1; assay: 125I-hNMU-25 displacement, HEK cell membranes
Method: (§1) Confluent cell monolayers expressing NMU receptors (the HEK cells described above) were harvested with phosphate buffered saline, collected by centrifugation, and resuspended in membrane buffer (50 mM TrisCl pH 7.4, 5 mM MgCl₂, 1× Protease Inhibitor Cocktail, 10 μM phosphoramidon). After the cell pellet was homogenized, the solution was centrifuged at 18,000 rpm for 20 minutes at 4° C. The pellet was resuspended in membrane buffer to yield a final concentration of 0.5-5 μg/μL of membrane and stored at −80° C.
(§2) Experiments were performed in assay buffer (25 mM TrisCl, pH 7.4, 10 mM MgCl₂, 2mM EDTA, 1× Protease Inhibitor Cocktail, 100 μg/mL Bacitricin, 10 μM phosphoramidon) in 200 μL volumes in a 96-well format using 2-5 μg of membrane and […] ¹²⁵I-hNMU-25 (about 12,000 cpm/well). For non-specific binding, 1 μM hNMU-25 was added. About 5 μL of peptides were added to measure antagonist activity, and the entire reaction was incubated at room temperature with shaking for 80 minutes. The reaction was terminated by rapid filtration through 0.3% poly-ethylenimine presoaked Millipore 96-well filter plates and washed with ice-cold buffer (5 mM TrisCl pH 7.4, 10 mM MgCl₂, 2.5 mM EDTA, 0.04% Triton X-100). Plates were air-dried overnight at room temperature and recovered radioactivity was determined by standard scintillation counting. IC₅₀ values were determined using GraphPad Prism software.
(§3) Concentration-response curves and radioligand-binding data were fitted using Prism (GraphPad Software). Results are summarized below in Tables 8 and 9.

human NMUR2 [4] = target: T6, human NMUR2; assay: 125I-hNMU-25 displacement, HEK cell membranes
Method: as §1, §2, §3

human NMUR1 [5] = target: T1, human NMUR1; assay: cell-based or functional assay; remark: listed apart in the source
human NMUR2 [6] = target: T6, human NMUR2; assay: cell-based or functional assay; remark: listed apart in the source
mouse NMUR1-ATG = target: T2, mouse NMUR1-ATG; assay: cell-based or functional assay
mouse NMUR1-CTG = target: T3, mouse NMUR1-CTG; assay: cell-based or functional assay
mouse NMUR2 = mouse NMUR2 (mouse, UniProt Q8BZ39 1-395); assay: cell-based or functional assay
mouse NMUR2, sequence (Q8BZ39 whole entry): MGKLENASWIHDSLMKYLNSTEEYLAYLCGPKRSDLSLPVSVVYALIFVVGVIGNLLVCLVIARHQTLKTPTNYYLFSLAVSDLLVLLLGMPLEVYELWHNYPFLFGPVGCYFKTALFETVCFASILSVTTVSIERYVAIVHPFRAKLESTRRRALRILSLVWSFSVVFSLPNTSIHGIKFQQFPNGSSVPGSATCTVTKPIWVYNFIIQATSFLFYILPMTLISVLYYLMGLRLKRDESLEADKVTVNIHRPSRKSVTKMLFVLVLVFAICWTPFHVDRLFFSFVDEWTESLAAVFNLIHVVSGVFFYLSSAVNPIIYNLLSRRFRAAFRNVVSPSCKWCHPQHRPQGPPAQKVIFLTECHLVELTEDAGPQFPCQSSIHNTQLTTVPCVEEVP

rat NMUR1-ATG = target: T4, rat NMUR1-ATG; assay: cell-based or functional assay
rat NMUR1-TTG = target: T5, rat NMUR1-TTG; assay: cell-based or functional assay
rat NMUR2 = rat NMUR2 (rat, UniProt Q9ESQ4 1-395); assay: cell-based or functional assay
rat NMUR2, sequence (Q9ESQ4 whole entry): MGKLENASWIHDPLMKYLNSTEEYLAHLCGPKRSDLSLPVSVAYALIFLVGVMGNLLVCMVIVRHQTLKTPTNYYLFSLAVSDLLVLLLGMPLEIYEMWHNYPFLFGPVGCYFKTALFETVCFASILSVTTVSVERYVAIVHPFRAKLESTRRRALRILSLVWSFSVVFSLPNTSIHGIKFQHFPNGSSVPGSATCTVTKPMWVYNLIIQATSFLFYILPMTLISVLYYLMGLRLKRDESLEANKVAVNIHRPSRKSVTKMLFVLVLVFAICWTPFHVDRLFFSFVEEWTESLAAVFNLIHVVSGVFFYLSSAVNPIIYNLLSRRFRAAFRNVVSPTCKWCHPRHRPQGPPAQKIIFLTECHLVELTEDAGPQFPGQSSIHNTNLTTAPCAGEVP

| Binder | % activity (human NMUR1 [1]) [%] | EC50 (human NMUR1 [1]) [nM] | % activity (human NMUR2 [2]) [%] | EC50 (human NMUR2 [2]) [nM] | % activity (binding) (human NMUR1 [3]) [%] | % activity (binding) (human NMUR2 [4]) [%] | IC50 (human NMUR2 [4]) [nM] | also measured |
| --- | --- | --- | --- | --- | --- | --- | --- | --- |
| B1 | 11 | 46 | 100 | 25 | 1 | 81 | 150 | – |
| FALFRPRN-NH2 [neuromedin U receptor agonist N] | 87 | 53 | 100 | 3.9 | 38.4 | 100 | 22 | – |
| B2 | 7 | > 1000 | 99 | 10 | 23 | 90 | 9.1 | – |
| B3 | 0 | > 1000 | 59 | 160 | 34 | 63 | 150 | – |
| Palmitoyl-C(Succinimide(1-Et,3-yl))FRVDEEFQSPFASQSRGYFLFRPRN-NH2 [NMU24] | – | – | – | – | – | – | – | % Activity (FLIPR) (human NMUR1 [5]): 34.4%; EC50 (FLIPR) (human NMUR1 [5]): 1000 nM; % Activity (FLIPR) (human NMUR2 [6]): 63.9%; EC50 (FLIPR) (human NMUR2 [6]): 1000 nM; % Activity (FLIPR) (mouse NMUR1-ATG): 81.4%; EC50 (FLIPR) (mouse NMUR1-ATG): 1000 nM; % Activity (FLIPR) (mouse NMUR1-CTG): 56.1%; EC50 (FLIPR) (mouse NMUR1-CTG): 591 nM; % Activity (FLIPR) (mouse NMUR2): 82.4%; EC50 (FLIPR) (mouse NMUR2): 1000 nM; % Activity (FLIPR) (rat NMUR1-ATG): 80.8%; EC50 (FLIPR) (rat NMUR1-ATG): 236 nM; % Activity (FLIPR) (rat NMUR1-TTG): 67.7%; EC50 (FLIPR) (rat NMUR1-TTG): 222 nM; % Activity (FLIPR) (rat NMUR2): 52.2%; EC50 (FLIPR) (rat NMUR2): 986 nM |
